83 variants from the RNAGym collection of RNA variant scans (doi:10.1093/molbev/msab373) can be followed below.

First the molecules themselves.
B1: Azoarcus group I ribozyme (parent)
chain: GUGCCUUGCGCCGGGAAACCACGCAAGGGAUGGUGUCAAAUUCGGCGAAACCUAAGCGCCCGCCCGGGCGUAUGGCAACGCCGAGCCAAGCUUCGGCGCCUGCGCCGAUGAAGGUGUAGAGACUAGACGGCACCCACCUAAGGCAAACGCUAUGGUGAAGGCAUAGUCCAGGGAGUGGCGAAAGUCACACAAACCGG

The variants in the data set derive from B1. The data set can be described thus: reverse-splicing fitness (ratio to wild type); higher = more active; in vitro selection; Mg2+ level not given. The procedure, abridged: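 An in vitro group I ribozyme library with randomized positions was T7-transcribed and gel-purified. In triplicate, 10 pmol RNA in EPPS pH 7.5 was reacted with 50 pmoles of a 30-nt RNA substrate for 1 h at 37 °C across several added MgCl2 levels (1–48 mM), then stopped with EDTA. Products were reverse transcribed from a substrate-complementary primer, PCR-amplified and sequenced (HiSeq 4000). Fitness is a variant's read proportion after selection over that before, normalised to wild type.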
On to C82A A111C A120C A145G, for which the reverse-splicing fitness came to 0.0258.
For the variant C82A A111C A120C A145U, the reverse-splicing fitness amounted to 0.0241.
As to C82A A111C A120G A145C C150U C169U U176C, the reverse-splicing fitness turned out to be 0.00813.
In the case of C82A A111C A120G A145C C150U C169U U176A it was 0.0143; in that of C82A A111C A120G A145C C150U C169U U176G, 0.00482; in that of C82A A111C A120C A145U C169A U176G, 0.00807.
Next, C82A A111C A120C A145U C169A U176C: 0.0162.
In the case of C82A A111C A120C A145U C169A U176A it was 0.0132.
In the case of C82A A111C A120C C150A, the reverse-splicing fitness came out at 0.0114.
Next, C82A A111C A120C C150U: 0.0169; C82A A111C A120C C150G: 0.0074; C82A A111C A120G A145C C150U: 0.00926.
Next, C82A A111C A120G A145C C150A: 0.00818; C82A A111C A120G A145C C150G: 0.00724.
C82A A111C A120G A145C C150U C169A: the reverse-splicing fitness is 0.00801.
In the case of C82A A111C A120G A145C C150U C169U it was 0.00644; in that of C82A A111C A120G A145C C150U C169G, 0.00775; in that of C82A A111C A120C C150G U176A, 0.00563.
Consider C82A A111C A120C C150G U176C, for which the reverse-splicing fitness came to 0.00863.
In the case of C82A A111C A120C C150G U176G it was 0.00353; in that of C82A A111C A120G A145G C150A C169G U176C, 0.0274.
Take C82A A111C A120G A145G C150A C169G U176A: the reverse-splicing fitness turned out to be 0.017.
In the case of C82A A111C A120G A145G C150A C169G U176G it was 0.00656.
In the case of C82A A111C A120C A145G C150G C169G U176G it was 0.00642; in that of C82A A111C A120C A145G C150G C169G U176A, 0.0109; in that of C82A A111C A120C A145G C150G C169G U176C, 0.0131.
C82A A111C A120C C150A C169G U176G: the reverse-splicing fitness amounted to 0.00878.
In the case of C82A A111C A120C C150A C169G U176C it was 0.0202.
Next, C82A A111C A120C C150A C169G U176A: 0.0168; C82A A111C A120G A145C C150U C169G U176C: 0.0133.
Consider C82A A111C A120G A145C C150U C169G U176A, for which the reverse-splicing fitness turned out to be 0.0217.
In the case of C82A A111C A120G A145C C150U C169G U176G it was 0.00558; in that of C82A A111C A120G A145G C150G C169A U176C, 0.0113.
With C82A A111C A120G A145G C150G C169A U176G, the reverse-splicing fitness turned out to be 0.00771.
On to C82A A111C A120G A145G C150G C169A U176A, for which the reverse-splicing fitness came to 0.0133.
Consider C82A A111C A120C A145C C150U C169G, for which the reverse-splicing fitness worked out at 0.00741.
Next, C82A A111C A120C A145C C150U C169A: 0.0105; C82A A111C A120C A145C C150U C169U: 0.0108; C82A A111C A120C A145U C150U C169G: 0.00764.
On to C82A A111C A120C A145U C150U C169U, for which the reverse-splicing fitness was 0.0124.
Next, C82A A111C A120C A145U C150U C169A: 0.00985; C82A A111C A120G A145C C150U U176A: 0.00894; C82A A111C A120G A145C C150U U176G: 0.00502.
C82A A111C A120G A145C C150U U176C: the reverse-splicing fitness turned out to be 0.0119.
In the case of C82A A111C A120C A145C C150G C169U U176A it was 0.00758.
In the case of C82A A111C A120C A145C C150G C169U U176C it was 0.0112.
Next, C82A A111C A120C A145C C150G C169U U176G: 0.00564; C82A A111C A120C A145U C150G C169A: 0.00977.
For the variant C82A A111C A120C A145U C150G C169U, the reverse-splicing fitness stood at 0.01.
In the case of C82A A111C A120C A145U C150G C169G it was 0.00675; in that of C82A A111C A120G A145C C150U C169A U176C, 0.00619.
In the case of C82A A111C A120G A145C C150U C169A U176A it was 0.0112; in that of C82A A111C A120G A145C C150U C169A U176G, 0.00632.
In the case of C82A A111C A120C A145U C150G C169G U176G, the reverse-splicing fitness turned out to be 0.00725.
Next, C82A A111C A120C A145U C150G C169G U176A: 0.00819.
In the case of C82A A111C A120C A145U C150G C169G U176C, the reverse-splicing fitness was 0.00621.
In the case of C82A A111C A120C A145G C150A C169G it was 0.00833; in that of C82A A111C A120C A145G C150A C169A, 0.0106; in that of C82A A111C A120C A145G C150A C169U, 0.00994.
In the case of C82A A111C A120C A145G C150G C169A U176C it was 0.0121.
Next, C82A A111C A120C A145G C150G C169A U176A: 0.0153.
As to C82A A111C A120C A145G C150G C169A U176G, the reverse-splicing fitness was 0.00798.
For C82A A111C A120C A145G C150G C169U U176A, the reverse-splicing fitness came to 0.0109.
In the case of C82A A111C A120C A145G C150G C169U U176C it was 0.0109; in that of C82A A111C A120C A145G C150G C169U U176G, 0.00808.
For the variant C82A A111C A120G A145C C150G C169U, the reverse-splicing fitness was determined as 0.00668.
In the case of C82A A111C A120G A145C C150G C169A, the reverse-splicing fitness came out at 0.00757.
For C82A A111C A120G A145C C150G C169G, the reverse-splicing fitness worked out at 0.00683.
In the case of C82A A111C A120C A145C C150U it was 0.0124; in that of C82A A111C A120C A145G C150G C169U, 0.00903; in that of C82A A111C A120C A145G C150G C169G, 0.00793.
For the variant C82A A111C A120C A145G C150G C169A, the reverse-splicing fitness was 0.00894.
In the case of C82A A111C A120G A145C C150A C169A U176G it was 0.00603.
Turning to C82A A111C A120G A145C C150A C169A U176A, the reverse-splicing fitness came to 0.01.
Next, C82A A111C A120G A145C C150A C169A U176C: 0.00778; C82A A111C A120G A145C C150A U176G: 0.00559.
As to C82A A111C A120G A145C C150A U176A, the reverse-splicing fitness was found to be 0.0103.
As for C82A A111C A120G A145C C150A U176C, the reverse-splicing fitness was 0.0105.
Next, C82A A111C A120G A145C U176A: 0.0123; C82A A111C A120G A145C U176G: 0.00486.
In the case of C82A A111C A120G A145C U176C it was 0.0134.
On to C82A A111C A120C C169A U176A, for which the reverse-splicing fitness came out at 0.0163.
C82A A111C A120C C169A U176G: the reverse-splicing fitness was 0.00712.
